Experimental data taken from paper PMC7518326 (2020).

Biological target: T1, BBI (Bcl9 peptide) 351-357 (Homo sapiens, UniProt O00512)
T1 chain: LSQEQLE

- Kd: ~1000 nM
B1: β-catenin (protein)
chain: ATQADLMELDMAMEPDRKAAVSHWQQQSYLDSGIHSGATTTAPSLSGKGNPEEEDVDTSQVLYEWEQGFSQSFTQEQVADIDGQYAMTRAQRVRAAMFPETLDEGMQIPSTQFDAAHPTNVQRLAEPSQMLKHAVVNLINYQDDAELATRAIPELTKLLNDEDQVVVNKAAVMVHQLSKKEASRHAIMRSPQMVSAIVRTMQNTNDVETARCTAGTLHNLSHHREGLLAIFKSGGIPALVKMLGSPVDSVLFYAITTLHNLLLHQEGAKMAVRLAGGLQKMVALLNKTNVKFLAITTDCLQILAYGNQESKLIILASGGPQALVNIMRTYTYEKLLWTTSRVLKVLSVCSSNKPAIVEAGGMQALGLHLTDPSQRLVQNCLWTLRNLSDAATKQEGMEGLLGTLVQLLGSDDINVVTCAAGILSNLTCNNYKNKMMVCQVGGIEALVRTVLRAGDREDITEPAICALRHLTSRHQEAEMAQNAVRLHYGLPVVVKLLHPPSHWPLIKATVGLIRNLALCPANHAPLREQGAIPRLVQLLVRAHQDTQRRTSMGGTQQQFVEGVRMEEIVEGCTGALHILARDVHNRIVIRGLNTIPLFVQLLYSPIENIQRVAAGVLCELAQDKEAAEAIEAEGATAPLTELLHSRNEGVATYAAAVLFRMSEDKPQDYKKRLSVELTSSLFRTEPMAWNETADLGLDIGAQGEPLGYRQDDPSYRSFHSGGYGQDALGMDPMMEHEMGGHHPGADYPVDGLPDLGHAQDLMDGLPPGDSNQLAWFDTDL
